Assay results from article PMC2830148 (Biochemistry, 2009).
Positions count from the first letter of the chain named. In names and notes the source's numbering stands.

B1: human TRAF2 construct RZ1 (RING and first zinc finger domains, residues 1-133-His), wild type (domain or fragment, UniProt Q12933 1-133, looked up)
chain: MAAASVTPPGSLELLQPGFSKTLLGTKLEAKYLCSACRNVLRRPFQAQCGHRYCSFCLASILSSGPQNCAACVHEGIYEEGISILESSSAFPDNAARREVESLPAVCPSDGCTWKGTLKEYESCHEGRCPLML
B2: TRAF2 RZ1 N94A mutant (domain or fragment, human, UniProt Q12933 1-133, looked up)
chain: B1 chain with N94A
B3: TRAF2 RZ1 Q46A mutant (domain or fragment, human, UniProt Q12933 1-133, looked up)
chain: B1 chain with Q46A

Target: the molecule itself
Assay: SEC

Protein	stoichiometry N	binding result
B1	2	–
B2	–	binds
B3	–	binds
